Results taken from the supplement of paper PMC9170038.

System: MS2 coat protein
Assay: apparent KD of MS2 coat protein; higher = weaker reporter binding
Conditions: Eterna round: R107
Procedure, shortened: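 Titrations with SNAP-549-labelled MS2 coat protein ran in twofold steps from 0.7 or 1.5 nM to 3 µM, each step taking 0.8–1.5 h at the start and 10–20 min toward the end. The targets were designed RNA switches transcribed on-chip from Illumina sequencing clusters, held in 100 mM Tris-HCl pH 7.5, 80 mM KCl, 4 mM MgCl2, without or with constant ligand. Apparent KD was taken per design as the median of normalised cluster binding-curve fits.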

[1] = input ligand: theophylline 20 uM
[2] = input ligand: theophylline 2 mM
[3] = input ligand: tryptophan 2.4 mM

Sequence | apparent KD of MS2 coat protein (input ligand: arginine 13.2 mM) | apparent KD of MS2 coat protein (input ligand: none) | apparent KD of MS2 coat protein [1] | apparent KD of MS2 coat protein [2] | apparent KD of MS2 coat protein [3]
GCUUGCUUGUAAGGUUCUGUCCGGCGUCGUCGAGGACCGGUACGGCCGCCACUCGCGCGUUUACAUGAGGAUCACCCAUGUCAUG [theeternabot_exclusion_MS2_Trp_A_49] | 0.0343 µM | 0.0406 µM | 0.0387 µM | 0.035 µM | 0.0475 µM
GGAAACCAAAGCGAUACCAGCGUACAUGAAAAGAGCGAAAACAUGAGGAUCACCCAUGUACGCCCUUGGCAGCGCAAAACCAAGG | 0.0214 µM | 0.0443 µM | 0.0508 µM | 0.103 µM | 0.0333 µM
GGACAUGCAGGAAGGAGCGACACAGCAGAAACUGCAAAUCCUCCACACGAGGAUCACCCGUGUCAGGUAGGUCGCCUGCAUGUCG [ArgXB 14 #Zipper #MS2Left #StaticStem #Blueprint] | 0.0767 µM | 0.0895 µM | 0.0991 µM | 0.126 µM | 0.0802 µM
GGACUAACCAGAAGGAGCGACACGCAGAAACUGCAAAUUCCUCCACACGAGGAUCACCCGUGUCAGGUAGGUCGCUGGUUAGUCG | 0.0278 µM | 0.024 µM | 0.0311 µM | 0.0284 µM | 0.0222 µM
GGACUAACCAGAAGGAGCGGCACGCAGAAACUGCAAAUUCCUCCACACGAGGAUCACCCGUGUCAGGUAGGUCGCUGGUUAGUCG | 0.0336 µM | 0.0215 µM | 0.0306 µM | 0.0276 µM | 0.0231 µM
GGACUCGUCACGGCCGCCACUGCGGUGGUGUGACAUGAGGAUCACCCAUGUUGUCAUGCGGCCCUUAGGACCGGGUGUCGCGUCC [#1 Exclusion - Tryptophan B Attempt #25 (HarryS)] | 0.0497 µM |  | 0.1 µM | 0.0938 µM | 
GGAUAGGACACGGCCGCCACUACCUAGGAUACUAGCAACAUUUGGGUGCACGAGGAUCACCCGUGUAGGACCGGGUGUCCUAUCG | 0.202 µM | 0.0725 µM | 0.115 µM | 0.102 µM | 0.291 µM
GGCACCAGGAGAAGGAGCGUGAAGACAUGAGGAUCACCCAUGUAGAGGCCCGUACUGGGUUCGCAGGUAGGUCGCUCCUGGUGCC [#1 Same State - Arginine B Attempt #13 (HarryS)] | 0.0221 µM | 0.0229 µM | 0.0392 µM | 0.0287 µM | 0.0299 µM
GGCUAGUGCAUCGAUACCAGCUACAUGAGGAUCACCCAUGUAGGAAGGGUGGUACUCGAUAGCCCUUGGCAGCGAACACCUCCGG [Quoran] | 0.0187 µM |  | 0.0357 µM |  | 0.0188 µM
